The values below come from US5801017A, “Production of recombinant factor Xa inhibitor of leech Hirudo medicinalis” (Bio-Technology General Corp., priority 1994, dated 1998).

“And” between values parts separate entries of the source, which are not always exact repeats. Equal values may be shown once.

The target of assay [1] is FXaI prepeptide expressed by plasmid pFSHI-6 (Met-His-His-His-His-His-His-Gly-Thr-Asp-Asp-Asp-Asp-Lys-FXaI) (Hirudo medicinalis).
Assay [2] concerns the target bovine Factor Xa (bovine) (UniProt P00743).
For assay [3], the target named is thrombin.
Assay [4] has as its target bovine Factor Xa (bovine) (UniProt P00743). This is another data set of the same source.
Assay [5] relates to FXa. Description: chromogenic FXa inhibitory activity assay (hydrolysis of CHG). The assay is classed as biochemical, bovine. The settings on record: for Inhibitory activity (specific activity), FXa: 1 mu = amount causing 50% inhibition with 2 nM FXa. The method, then: Increasing amounts of FXaI purified on Mono-Q were preincubated for 3 minutes with 2 pmol bovine FXa in a 1 ml cuvette. The initial rate of hydrolysis of the substrate CHG was monitored at 405 nm (see Example 2). Fraction 47 was the peak fraction of a particular purification experiment.
The assay of FXa inhibitory activity is based on the inhibition of the FXa-mediated hydrolysis of the chromogenic substrate methoxycarbonyl-D-cyclohexylglycyl-glycyl-arginyl p-nitroanilide (CHG) as described below.
The appropriate substrate concentration was determined from the molar absorbance which is 8210 at 342 nm. The reaction mixture contains 50 mM Tris-HCl pH 8.2, 5 mM CaCl2, 200 mM NaCl, 0.1% PEG, 40 μM substrate, and approximately 2 nM FXa. The FXa concentration is determined more precisely from the initial (first 20 seconds) rate of CHG hydrolysis at 40 μM in the absence of inhibitor based on the kinetic parameters mentioned above.
Inhibition of the increase in absorbance may be observed in the presence of the FXa inhibitory activity of an FXa inhibitor such as FXaI of the present invention. The inhibitor concentration is the difference in absorbance between the reaction in the presence and absence of inhibitor multiplied by the FXa concentration.
This determination assumes the formation of a 1:1 enzyme-inhibitor complex, and further assumes that the dissociation constant is low enough (i.e., tight binding) to enable essentially total binding of the inhibitor (FXaI) to the enzyme (FXa). In fact, the saturation shape of the dose-response curve (FIG. 3) provides evidence that a finite and not negligible dissociation of the inhibitor-enzyme complex occurs under these conditions. The dose response curve is represented by the degree of inhibition versus FXaI concentration and is further described in Section 5.2.
The degree of dissociation of the FXa-FXaI complex is characterized by the inhibition constant (Ki) and may be determined from the inhibited velocity of the hydrolysis of the chromogenic substrate CHG. […] The Ki of naturally occurring FXa in the chromogenic assay is about 9 nM.
The determination of inhibitor concentration determined by the above method is therefore probably underestimated. It was found useful to define the FXaI concentration as the protein concentration (IC50) required to obtain a constant degree of inhibition, usually 50% and to define the amount causing 50% inhibition under these reaction conditions to be 1 milliunit (mu) or 1 pmol. IC50 is generally higher than Ki, and depending on the type of inhibition, can be shown to depend variously on substrate concentration, Ki, Km and other factors (Segel, I. (1974) "Enzyme Kinetics", Wiley Interscience). In fact, the range of values of IC50 was determined to be about 10-20 nM.
The FXaI activity assay used to determine concentration during purification and characterization was performed in an Elisa Titertek Twin Reader, Type 380 (EF LAB). The final activity measurement of purified protein was also performed in a Phillips (model PU 8720) UV/Vis scanning spectrophotometer.

Assay [6] concerns murine plasma. Description: APTT coagulation assay in murine plasma. The assay is classed as biochemical. The procedure:
(§1) APTT (activated partial thromboplastin time) of fresh murine or human plasma was monitored by visual assessment of its clotting in the absence or presence of various amounts of FXaI. Briefly, FXaI (up to 50 μl), 100 μl of plasma and 100 μl of partial thromboplastin (Actin-FS) were incubated for 3 minutes at 37° C. The coagulation cascade was activated by the addition of 100 μl of 20 mM CaCl2. The FXaI concentration in the abscissa is based on the assumption that 1 mu=1 pmol. Murine plasma--.circle-solid.; human plasma--.diamond-solid.. The arrows indicate the FXaI concentration at which doubling of the APTT is obtained.
(§2) The inhibitory activity of FXaI was also assayed as the increase of the activated partial thromboplastin time (APTT) essentially as described in Spaethe, Haemostasis, AHS/Deutschland GmbH, Munich (1984), using as reagent Actin FS (Dade), which contains ellagic acid for activation of Factors XII and Factor XI, and soy bean phospholipid. Under these conditions, and in the presence of 20 mM CaCl2, only the intrinsic pathway of coagulation is activated.
(§3) Isoform A (the major fraction of naturally occurring FXaI isolated from DLS) was used in these experiments. […] The protein concentration of this batch was assayed by SDS-Bradford (Macart and Gerbaut, Clin. Chim. Acta 122:93-101 (1982)) and was determined to be ~20 μg/ml.

The subject of assay [7] is human plasma. In words: APTT coagulation assay in human plasma. It is filed as biochemical. The method, then: as §1, §2, §3
The subject of assay [8] is thrombin. Description: thrombin inhibition assay according to Lottenberg et al. It is filed as biochemical. The method, then:
The refolded and dialyzed protein so obtained was assayed for FXa inhibitory activity by the biochemical chromogenic assay described in Example 2. The results are shown in Table 6 as milliunits per mg protein (mu/mg). The amount of protein causing 50% inhibition in an assay mixture containing 2 nM FXa is defined as 1 mu. In addition, the refolded protein was also tested for its inhibitory effect on thrombin, another proteolytic enzyme of the coagulation cascade, which was assayed according to Lottenberg et al. Methods Enzymol. 80:341-361 (1981).

Assay [9] deals with Factor Xa.
The target of assay [10] is bovine Factor Xa (bovine) (UniProt P00743). This is another data set of the same source.
Assay [11] concerns the target Factor Xa. In words: prothrombinase complex assay (FXa 250 pM, prothrombin 2.67 µM, FVa, cephalin, Ca++).
Assay [12] concerns the target Factor Xa. In words: prothrombinase complex assay, modified protocol (50 pM FXa, 1.35 µM prothrombin).
Assay [13] has as its target bovine Factor Xa (bovine) (UniProt P00743). This is another data set of the same source.
Target sequence in this assay (P00743 41-492): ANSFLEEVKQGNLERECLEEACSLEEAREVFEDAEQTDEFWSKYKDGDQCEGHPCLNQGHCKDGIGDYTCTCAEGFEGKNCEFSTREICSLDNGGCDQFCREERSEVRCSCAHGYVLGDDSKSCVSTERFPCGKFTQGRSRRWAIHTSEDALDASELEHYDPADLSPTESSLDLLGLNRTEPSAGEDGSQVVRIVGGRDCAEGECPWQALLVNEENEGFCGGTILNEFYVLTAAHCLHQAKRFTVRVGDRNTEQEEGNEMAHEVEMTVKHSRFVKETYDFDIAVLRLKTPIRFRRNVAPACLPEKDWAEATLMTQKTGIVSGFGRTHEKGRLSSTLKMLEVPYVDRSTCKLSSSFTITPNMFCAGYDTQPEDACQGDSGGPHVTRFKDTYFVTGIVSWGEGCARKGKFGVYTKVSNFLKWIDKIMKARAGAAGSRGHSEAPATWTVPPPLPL
The target of assay [14] is Factor Xa. This is another data set of the same source.
For assay [15], the target named is bovine Factor Xa (bovine) (UniProt P00743). The source holds these as a separate data set.
Target sequence in this assay (P00743 41-492): as above
Assay [16] has the same target. This is another data set of the same source.
Target sequence in this assay (P00743 41-492): as above
Assay [17] has the same target. The source holds these as a separate data set.
Target sequence in this assay (P00743 41-492): as above

The molecule “Enterokinase (Biozyme, Great Britain) (enzyme)” came in with a cleavage efficiency by SDS-PAGE analysis in [1] of 95%.
With “isoform A of naturally occurring FXaI isolated from DLS”, the activity in the chromogenic assay in [2] amounted to 164 mu/ml.
In [3], “isoform B of naturally occurring FXaI isolated from DLS” showed a Specific activity, mu/mg (inhibition of thrombin) below 1 mu/mg. This molecule returned a Specific activity, mu/mg (inhibition of FXa, chromogenic assay) in assay [4] of 507 mu/mg.
With “Isoform A: major fraction of naturally occurring FXaI from DLS, eluted by low salt gradient, 13-14 kD”, the “activity in the chromogenic assay, equivalent” value in assay [5] (assuming tight binding between FXa and inhibitor) was determined as 164 pmol/mL. Also, the “activity in the chromogenic assay” value in assay [5] (batch of ~20 μg/ml protein) stood at 164 mu/ml. For the same molecule, in assay [6], the “concentration causing doubling of the APTT” value was found to be 3.5 mu/ml and the “concentration causing doubling of the APTT, based on protein concentration” value stood at 30 nM. In [7], the “concentration causing doubling of the APTT” value is 10 mu/ml and the “concentration causing doubling of the APTT, based on protein concentration” value stood at 87 nM.
“Met-His-His-His-His-His-His-Gly-Thr-Asp-Asp-Asp-Asp-Lys-FXaI [FXaI prepeptide]”: the “FXa inhibitory specific activity” value in assay [5] (prior to cleavage with enterokinase) is recorded as 1000-1200 mu/mg protein.
In the case of “Refolded 11"f": refolded fusion protein: 63 N-terminal amino acids of modified Cu/Zn-SOD, met-phe-val linker, FXaI tyr26 to gly110; plasmid pDeo-S-XaI-11"f"”, the “Inhibitory activity (specific activity), FXa” value in assay [5] (listed as Refolded 11"f" Batch 1) was 150 mu/mg; in assay [5] (listed as Refolded 11"f" Batch 2), 95 mu/mg; in assay [5] (listed as Refolded 11"f" Batch 3), 89 mu/mg. For the same molecule, the “specificity for FXa versus thrombin” value in assay [5] (ratio of specific activities) is recorded as “greater than 80 fold”. The “Inhibitory activity (specific activity), Thrombin” value in [8] is on record as below 1 mu/mg.
The molecule “naturally occurring FXaI (Factor Xa inhibitor) purified from dilute leech saliva (DLS) of Hirudo medicinalis” yielded an IC50 in the prothrombinase complex assay (generation of thrombin from prothrombin) in assay [9] of 190 pM. In addition, in assay [10], the IC50 in the chromogenic FXa assay lay in the range of 10 to 20 nM. Moreover, the Ki in assay [11] is 0.072 nM; in assay [12], 0.12 nM.

B1: FXaI prepeptide expressed by plasmid pFSHI-6 (Met-His-His-His-His-His-His-Gly-Thr-Asp-Asp-Asp-Asp-Lys-FXaI) (protein)
chain: MHHHHHHGTDDDDKYEVIYVDDPCEDSDCEDGNKCSPVTNECDCSPVRCRLHCNFYVKDSNGCETCACEPKCKHKNCPTGHHCNKLTNKCELKKQRRMG
As to B1, the FXa inhibitory specific activity in the chromogenic assay, prior to cleavage (mu/mg protein) in [13] was 1000 and 1200.

B2: mature recombinant FXaI obtained by enterokinase cleavage of the pFSHI-6 prepeptide (protein)
chain: YEVIYVDDPCEDSDCEDGNKCSPVTNECDCSPVRCRLHCNFYVKDSNGCETCACEPKCKHKNCPTGHHCNKLTNKCELKKQRRMG
As for B2, the concentration causing doubling of the APTT in assay [14] was found to be 12.2 µg/mL. Further, in [13], the FXa inhibitory specific activity in the chromogenic assay, after removal of the extension peptide by chromatography is 8000 mU/mg; the FXa inhibitory specific activity in the chromogenic assay, following cleavage with enterokinase (mu/mg protein) was 4000 and 4500.

B3: cleaved, refolded product: mature FXaI from the FXaI dimer (plasmid pMLK-XaI-D-11"m") cleaved with CNBr, then refolded (protein)
chain: YEVIYVDDPCEDSDCEDGNKCSPVTNECDCSPVRCRLHCNFYVKDSNGCETCACEPKCKHKNCPTGHHCNKLTNKCELKKQRRMG
In the case of B3, the “specific FXa inhibitory activity” value in assay [5] (Route I: dimer cleaved with CNBr, then refolded) is 1900 mU/mg.

B4: mature recombinant FXaI obtained by CNBr cleavage of the FXaI dimer (protein)
chain: YEVIYVDDPCEDSDCEDGNKCSPVTNECDCSPVRCRLHCNFYVKDSNGCETCACEPKCKHKNCPTGHHCNKLTNKCELKKQRRMG
Take B4: the specific activity in the chromogenic assay (route II: refolded, then cleaved with CNBr), A in [15] came to 2470 mu/mg. Further, the specific activity in the chromogenic assay (route II: refolded, then cleaved with CNBr), B in [16] turned out to be 4700 mu/mg. In addition, the specific FXa inhibitory activity in the chromogenic assay (route I: cleaved, then refolded) in assay [17] turned out to be 1900 mU/mg.

The term Ki denotes the dissociation constant of the complex between target and ligand, obtained from inhibition or displacement. A high value points to weaker binding.
